Target: the molecule itself
Assay: native MS; peptide alone in 200 mM ammonium acetate, pH 7; high monomer concentration (80 uM WT and T329I, 100 uM R337H), cone voltage 40 V (raised to 80-120 V to dissociate the oligomers); positive ESI, TOF and ion mobility-TOF; WT and R337H not isotope-labelled

B1: 37TD-WT (wild-type p53 tetramerisation domain peptide, residues 320-356) (peptide, UniProt P04637 320-356, looked up)
chain: Ac-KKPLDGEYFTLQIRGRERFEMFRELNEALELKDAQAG-NH2
modifications: also: 13C-methyl Met340 in the isotope-labelled form
notes: p53 tetramerisation domain, residues 320-356 (37 amino acids); Made twice: with normal methionine (used in native MS and CD) and with 13C-methyl methionine (used in NMR); also called WT TD; p53TD; source: synthetic peptide (manual Fmoc/tBu SPPS), purified by semi-preparative HPLC
- stoichiometry N: 4
